Results reported in publication PMC6477179 (2019).

Biological target: GST-p62 FIR (aa 326-380) (human, UniProt Q13501 326-380)
Assay: SPR

Kd: 5.1 µM
B1: FIP200 CTR (aa 1458-1594) (domain or fragment)
chain: RIMLLERTLQLKEEENKRLNQRLMSQSMSSVSSRHSEKIAIRDFQVGDLVLIILDERHDNYVLFTVSPTLYFLHSESLPALDLKPGEGASGASRRPWVLGKVMEKEYCQAKKAQNRFKVPLGTKFYRVKAVSWNKKV
